The values that follow come from publication PMC5585231, “Endocytic sorting motif interactions involved in Nef-mediated downmodulation of CD4 and CD3” (Nature Communications, 2017).

The test concerns the target T1, CD3 ζ SNID2 peptide (22-mer) (human).
T1 construct: also called second ITAM motif of CD3 ζ; source: synthetic peptide (in house, Boc chemistry, RP-HPLC)
T1 peptide: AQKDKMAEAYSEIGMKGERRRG
Put plainly: ITC; Nef (typically 200 µM) injected stepwise from the syringe into 20 µM CD3 ζ peptide in the cell; 20 mM HEPES pH 8.0, 100 mM NaCl, 25 °C; MicroCal iTC200. To be noted: both partners purified.

B1: SIVmac239 Nef (66-235) (domain or fragment)
chain: MATPWRNPAEEREKLAYRKQNMDDIDEEDDDLVGVSVRPKVPLRTMSYKLAIDMSHFIKEKGGLEGIYYSARRHRILDIYLEKEEGIIPDWQDYTSGPGIRYPKTFGWLWKLVPVNVSDEAQEDEEHYLMHPAQTSQWDDPWGEVLAWKFDPTLAYTYEAYVRYPEEFGS
notes: pGEX-4T1 with a TEV site; also called SIV-B; SIV Nef-B; source: E. coli BL21(DE3), purified (GSH resin, size exclusion chromatography)
For B1, the stoichiometry N (commonly a count of units in the complex or per binding partner) was found to be 1.07.
